Experiments:
alpha-thrombin [1] = target: T1, alpha-thrombin (Homo sapiens, UniProt P00734); assay: inhibition of S-2238 hydrolysis, Kiapp versus substrate concentration regression
alpha-thrombin [2] = target: T1, alpha-thrombin; assay: inhibition of S-2238 hydrolysis, Morrison fit
alpha-thrombin [3] = target: T1, alpha-thrombin; assay: SPR

KPVEAEVAQPKLYQRGEGGNGMEPIPEDVLNEALNA [XC-43 mature peptide]
Ki (alpha-thrombin [1]): 7.7 pM
Ki (alpha-thrombin [2]): 6.1 pM
Kd (alpha-thrombin [3]): 3 pM

KPVEAEVAQSNLDECEVEAEVAQPKLYQRGEGGNGMEPIPEDVLNEALNA [XC-42 mature peptide]
Ki (alpha-thrombin [2]): 18 pM
